# Measured values: patent US20250346646A1, “COMPOUNDS USEFUL TO TREAT METABOLIC DISORDERS” (President and Fellows of Harvard College, priority 2016, published 2025)
# Assays:
# [1] = test system: mice with diet induced obesity; experiment: Glucagon challenge test in mice with diet induced obesity; assay type: in vivo, mouse; details: HFD 20 weeks; 33 mg/kg i.p. twice a week for 3 weeks; 150 μg/kg glucagon after 4-hour fast; vs vehicle
# Experimental: Mice were fed high fat diet for 20 weeks prior to the experiment. Starting from the 20th week, mice were injected with vehicle or anti-aP2 mAb at a dose of 33 mg/kg injected i.p. twice a week for 3 weeks.
# aP2 deficient mice [2] = experiment: Glucagon injection test (glycaemia) in aP2 deficient mice; details: 4-hour food withdrawal
# Description: Graphs show data as mean s.e.m. Experiments were repeated at least three times with similar results.
# One-way ordinary ANOVA, with Tukey correction was used for multiple group comparisons. Experiments were repeated at least three times with similar results.
# biotin-glucagon = biotin-glucagon (Homo sapiens, UniProt P01275); experiment: Bio-Layer Interferometry: aP2 binding to biotin-glucagon; details: read-out: Kdapp aP2 / biotinylated glucagon; biolayer interferometry, 25° C., PBS
# aP2 deficient mice [3] = experiment: Hyper-insulinemic-pancreatic clamp in aP2 deficient mice; assay type: in vivo, mouse; details: insulin 3 mU/kg/min, vs vehicle
# Description: Multiple group comparisons under clamp conditions were done using one-way ANOVA statistics with Tukey post-test correction. Basal and clamp conditions between groups were compared using repeated measures two-way ANOVA with Sidak correction. Graphs show data as mean s.e.m.
# [4] = test system: HepG2-C3A human hepatoma cell line; experiment: Glycogenolysis (14C-glucose release) in HepG2-C3A cells; assay type: cell-based; details: 24 hours stimulation, aP2 with glucagon
# Description: (§1) Bar graphs represent mean±standard deviation (s.d.), n=4-5 per group. *P≤0.05, **P≤0.01, ***P≤0.001, ****P≤0.0001, ns P>0.05. Multiple group comparisons were done using one-way ANOVA statistics with Tukey post-test correction.
# primary hepatocytes = experiment: De-novo glucose production in primary hepatocytes; assay type: cell-based, mouse; details: 4 hours stimulation, aP2 with glucagon
# Description: as §1
# [5] = test system: G6Pc and Pck1 expression in primary hepatocytes; experiment: Gluconeogenic gene expression (G6Pc, Pck1) in primary hepatocytes; assay type: cell-based, mouse; details: glucagon 100 nM plus recombinant aP2, vs glucagon alone
# GCGR-ecd = molecular target: T1, GCGR-ecd (Homo sapiens, UniProt P47871); experiment: Biolayer interferometry: GCGR-ecd binding to biotin-glucagon with or without aP2; details: BLITZ biolayer interferometry
# T1 construct: GCGR extracellular domain was cloned into pFastBac shuttle vector; hexahistidine; WELQ protease site; made in house; host or cells: baculovirus expression system (pFastBac)
# human glucagon receptor = human glucagon receptor (Homo sapiens, UniProt P47871); experiment: cAMP-response element luciferase reporter in CHO-K1 cells expressing human GCGR-GFP; assay type: cell-based; details: CHO-K1 human GCGR cAMP reporter
# Experimental: as §1, with “*P<0.05, **P<0.01,” for “*P≤0.05, **P≤0.01,”, “correction. Graphs show data as mean±standard error of mean (s.e.m.), analyzed using two-way ANOVA.” for “correction.”
# During cloning hexahistadine and WELQ protease site was added for protein purification. Murine aP2 gene was cloned into pet21+ vector after the hexahistadine tag and TEV protease site for ease of purification.
# Plasmids were transfected using Lipofectamine (Invitrogen) according to manufacturer's instructions. Transiently transfected cells were grown in appropriate selection antibiotics where applicable for stable cell line generation. Following three passages under selection media, single cell colonies were picked and expanded for experimentation after validation.
# aP2 knockout mice = experiment: Glucagon response of aP2 knockout mice given aP2, with or without CA33 preincubation; assay type: in vivo, mouse; details: CA33 preincubated with aP2
# Description: Mouse and rabbit-mouse hybrid monoclonal antibodies raised against the human and mouse aP2 peptides were produced and screened. […] The systemic improvement in glucose metabolism was further verified using a glucose tolerance test (GTT).
# glucagon = glucagon (Homo sapiens, UniProt P01275); experiment: Microscale thermophoresis, binding to glucagon; details: read-out: Kd, binding to glucagon; MST
# Sequence of glucagon (P01275 53-81 limits assumed): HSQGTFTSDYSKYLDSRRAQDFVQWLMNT
# T1 sequence (P47871 26-136 limits assumed): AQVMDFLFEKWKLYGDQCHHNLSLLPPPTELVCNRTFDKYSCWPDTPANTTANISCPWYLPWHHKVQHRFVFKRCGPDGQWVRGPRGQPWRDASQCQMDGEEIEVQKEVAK
# Sequence of human glucagon receptor (P47871 26-477): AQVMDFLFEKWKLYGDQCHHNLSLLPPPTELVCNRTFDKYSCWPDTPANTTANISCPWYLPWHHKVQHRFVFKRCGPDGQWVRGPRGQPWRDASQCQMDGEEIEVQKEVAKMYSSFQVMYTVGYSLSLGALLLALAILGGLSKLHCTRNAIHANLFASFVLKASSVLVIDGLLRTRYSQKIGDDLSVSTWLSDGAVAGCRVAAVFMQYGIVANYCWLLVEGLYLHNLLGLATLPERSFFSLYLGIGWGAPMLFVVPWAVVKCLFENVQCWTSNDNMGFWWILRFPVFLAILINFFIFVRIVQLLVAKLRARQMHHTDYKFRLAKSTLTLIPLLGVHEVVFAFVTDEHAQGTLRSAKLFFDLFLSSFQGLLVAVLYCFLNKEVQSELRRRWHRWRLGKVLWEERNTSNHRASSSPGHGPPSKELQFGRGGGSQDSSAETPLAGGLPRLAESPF
Kd (biotin-glucagon) [nM],Change of dissociation constant of glucagon to GCGR-ecd on addition of aP2 (GCGR-ecd),Increase of glucagon potency by aP2 addition (human glucagon receptor),Kd (glucagon) [nM],Molecule,Response to glucagon injection (glucose levels) [1],Glycaemia response (glucagon responsiveness) (aP2 deficient mice [2]),Hepatic glucose production / counterregulatory response to insulin (aP2 deficient mice [3]),Glycogenolysis [4],Hepatic glucose production (primary hepatocytes),Expression of gluconeogenic genes [5],Glucagon responsiveness of aP2 knockout mice (aP2 knockout mice)
,,,,"anti-aP2 mAb: anti-aP2 monoclonal antibody of Example 4, identity not stated (probably CA33) (antibody, V domains shown) VH: QSVEESGGRLVTPGTPLTLTCTVSGFSLSTYYMSWVRQAPGKGLEWIGIIYPSGSTYCASWAKGRFTISKASTTVDLKITSPTTEDTATYFCARPDNDGTSGYLSGFGLWGQGTLVTVSS VL: DVVMTQTPASVSEPVGGTVTIKCQASEDISRYLVWYQQKPGQPPKRLIYKASTLASGVPSRFKGSGSGTDFTLTISDLECDDAATYYCQCTYGTYAGSFFYSFGGGTEVVVE",significantly lower response,,,,,,
2340,an order of magnitude decrease,more than one order of magnitude,~214,"aP2: adipocyte lipid binding protein (aP2), also known as fatty-acid binding protein 4 (FABP4), recombinant (protein) MCDAFVGTWKLVSSENFDDYMKEVGVGFATRKVAGMAKPNMIISVNGDLVTIRSESTFKNTEISFKLGVEFDEITADDRKVKSIITLDGGALVQVQKWDGKSTTIKRKRDGDKLVVECVMKGVTSTRVYERA",,little to no-response,not seen,increased,increased,further increased,rescues glucagon unresponsiveness
